# In CN116745314A (VIR BIOTECHNOLOGY CO LTD, dated 2023):
# Biological target: spike glycoprotein of live SARS-CoV-2 (isolate USA-WA1/2020) (SARS-CoV-2, UniProt P0DTC2 14-1273)
# Experiment: cell-based or functional assay
binder,measurement,value
"S2E12 (antibody, V domains shown) VH: not shown VL: DIVLTQTPGTLSLSPGERATLSCRASQSVSSSYLAWYQQKPGQAPRLLIYGASSRATGIPDRFSGSGSGTDFTLTISRLEPEDFAVYYCQQYVGLTGWTFGQGTKVEIK",EC50 (live SARS-CoV-2 neutralisation),5 ng/mL
same,IC50 (live SARS-CoV-2 neutralisation),5.41 ng/mL
